Target: the molecule itself
Test: native MS

B1: Erwinia ligand-gated ion channel (ELIC), wild type (natural protein)
chain: APADNAADARPVDVSVSIFINKIYGVNTLEQTYKVDGYIVAQWTGKPRKTPGDKPLIVENTQIERWINNGLWVPALEFINVVGSPDTGNKRLMLFPDGRVIYNARFLGSFSNDMDFRLFPFDRQQFVLELEPFSYNNQQLRFSDIQVYTENIDNEEIDEWWIRKASTHISDIRYDHLSSVQPNQNEFSRITVRIDAVRNPSYYLWSFILPLGLIIAASWSVFWLESFSERLQTSFTLMLTVVAYAFYTSNILPRLPYTTVIDQMIIAGYGSIFAAILLIIFAHHRQAMGVEDDLLIQRCRLAFPLGFLAIGCVLVIRGITL
For B1, the “stoichiometry N” value was 5.
